Laboratory results as given in publication PMC3517456.

Columns and labels:
Gal4AD-Caf1b = Gal4AD-Caf1b (UniProt Q9UFF9); experiment: yeast two-hybrid (β-galactosidase reporter); conditions: yeast strain YRG-2, LacZ reporter under five GAL4 consensus sequences; triplicate; parent: est. 25; read off a plot
Gal4AD-Caf1a = Gal4AD-Caf1a (UniProt Q9UIV1); experiment: yeast two-hybrid (β-galactosidase reporter); conditions: yeast strain YRG-2, LacZ reporter under five GAL4 consensus sequences; triplicate; parent: est. 8.4; read off a plot
UniProt Q9UIV1, sequence (Q9UIV1 whole entry, the tested form may be a part): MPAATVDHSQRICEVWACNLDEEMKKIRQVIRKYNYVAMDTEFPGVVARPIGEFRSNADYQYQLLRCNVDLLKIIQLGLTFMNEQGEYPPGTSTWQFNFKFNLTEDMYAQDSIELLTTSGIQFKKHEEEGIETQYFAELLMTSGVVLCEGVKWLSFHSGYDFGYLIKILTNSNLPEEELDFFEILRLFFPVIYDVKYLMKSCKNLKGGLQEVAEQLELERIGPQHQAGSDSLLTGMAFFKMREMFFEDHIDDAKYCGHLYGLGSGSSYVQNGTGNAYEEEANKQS

UniProt Q9UFF9, sequence (Q9UFF9 whole entry, the tested form may be a part): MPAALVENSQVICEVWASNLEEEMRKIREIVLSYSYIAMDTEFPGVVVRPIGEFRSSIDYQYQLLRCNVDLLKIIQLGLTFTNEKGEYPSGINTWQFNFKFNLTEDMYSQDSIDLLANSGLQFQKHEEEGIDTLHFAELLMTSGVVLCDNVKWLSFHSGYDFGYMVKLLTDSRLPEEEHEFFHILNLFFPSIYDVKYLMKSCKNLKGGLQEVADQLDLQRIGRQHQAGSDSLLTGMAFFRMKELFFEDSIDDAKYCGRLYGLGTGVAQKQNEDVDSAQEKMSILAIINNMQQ

response (Gal4AD-Caf1b): 2.8 x10^4 RLU
response (Gal4AD-Caf1a): 1.7 x10^4 RLU
Substance: Gal4-DNA binding domain-TOB1 (from UniProt P50616) H45A
